# B1: BRD3^BD2 (second bromodomain of BRD3, residues 306-416) (domain or fragment)
# chain: GKLSEHLRYCDSILREMLSKKHAAYAWPFYKPVDAEALELHDYHDIIKHPMDLSTVKRKMDGREYPDAQGFAADVRLMFSNCYKYNPPDHEVVAMARKLQDVFEMRFAKMP
# Columns and labels:
# KLHDC2 R56A mutant [1] = target: T1, KLHDC2 R56A mutant (UniProt Q9Y2U9 15-361, R56A); experiment: ITC; ternary complex with PROTAC SJ46421
# [2] = target: KLHDC2 H346/R347 to alanine mutant (UniProt Q9Y2U9 15-361, H346 to alanine | R347 to alanine, H346A and R347A taken as one combined double mutant, because the text lists H346/R347 as one of four patches mutated to alanine; whether they were combined is not printed explicitly); experiment: ITC; ternary, with SJ46421
# KLHDC2 R56A mutant [3] = target: T1, KLHDC2 R56A mutant; experiment: ITC; ternary, with SJ46421
# [4] = target: KLHDC2 K291 to alanine mutant (UniProt Q9Y2U9 15-361, K291 to alanine); experiment: ITC; ternary, with SJ46421
# [5] = target: KLHDC2 R112 to alanine mutant (UniProt Q9Y2U9 15-361, R112 to alanine); experiment: ITC; ternary, with SJ46421
# [6] = target: B1; experiment: ITC; ternary, BRD3 BD2 pre-bound to PROTAC SJ46421
# [7] = target: B1; experiment: ITC; ternary complex with PROTAC SJ46423 (BRD3BD2-SJ46423 in cell)
# [8] = target: B1; experiment: ITC; ternary, BRD3 BD2 pre-bound to SJ46423
# [9] = target: T2, BRD3^BD2 E344G swap mutant (UniProt Q15059 306-416, E344G); experiment: ITC; ternary complex with PROTAC SJ46421
# [10] = target: T3, BRD4^BD2 G-to-E swap mutant (G386E) (UniProt O60885 334-460, G-to-E swap mutation (G386)); experiment: ITC; ternary complex with PROTAC SJ46421
# [11] = target: T4, BRD2^BD2 G-to-E swap mutant (G382E) (UniProt P25440 344-455, G-to-E swap mutation (G382)); experiment: ITC; ternary complex with PROTAC SJ46421
# [12] = target: T5, BRD2^BD2 (second bromodomain of BRD2, residues 344-455) (UniProt P25440 344-455); experiment: ITC; ternary complex with PROTAC SJ46421 (BRD2BD2-SJ46421 in cell)
# [13] = target: B1; experiment: ITC; ternary complex with PROTAC SJ46421 (BRD3BD2-SJ46421 in cell)
# [14] = target: T6, BRD4^BD2 (second bromodomain of BRD4, residues 334-460) (UniProt O60885 334-460); experiment: ITC; ternary, BRD4 BD2 pre-bound to PROTAC SJ46421
# [15] = target: T5, BRD2^BD2 (second bromodomain of BRD2, …); experiment: ITC; ternary, BRD2 BD2 pre-bound to PROTAC SJ46421
# [16] = target: T2, BRD3^BD2 E344G swap mutant; experiment: ITC; ternary, with SJ46421
# [17] = target: T3, BRD4^BD2 G-to-E swap mutant (G386E); experiment: ITC; ternary, with SJ46421
# [18] = target: T4, BRD2^BD2 G-to-E swap mutant (G382E); experiment: ITC; ternary, with SJ46421
# [19] = target: T6, BRD4^BD2 (second bromodomain of BRD4, …); experiment: ITC; ternary complex with PROTAC SJ46421 (BRD4BD2-SJ46421 in cell)
Binder,Kd (KLHDC2 R56A mutant [1]),Kd [2],Kd (KLHDC2 R56A mutant [3]),Kd [4],Kd [5],Kd [6],Kd [7],Kd [8],Kd [9],Kd [10],Kd [11],Kd [12],Kd [13],Kd [14],Kd [15],Kd [16],Kd [17],Kd [18],Kd [19]
B1,273 nM,50.9 nM,273 nM,25.6 nM,39.7 nM,–,–,–,–,–,–,–,–,–,–,–,–,–,–
"KLHDC2 substrate binding domain (KLHDC2^SBD, 15-361) (domain or fragment) GPAFESYESMELACPAERSGHVAVSDGRHMFVWGGYKSNQVRGLYDFYLPREELWIYNMETGRWKKINTEGDVPPSMSGSCAVCVDRVLYLFGGHHSRGNTNKFYMLDSRSTDRVLQWERIDCQGIPPSSKDKLGVWVYKNKLIFFGGYGYLPEDKVLGTFEFDETSFWNSSHPRGWNDHVHILDTETFTWSQPITTGKAPSPRAAHACATVGNRGFVFGGRYRDARMNDLHYLNLDTWEWNELIPQGICPVGRSWHSLTPVSSDHLFLFGGFTTDKQPLSDAWTYCISKNEWIQFNHPYTEKPRLWHTACASDEGEVIVFGGCANNLLVHHRAAHSNEILIFSVQP",–,–,–,–,–,19 nM,251 nM,251 nM,181 nM,24.5 nM,95.4 nM,208 nM,19 nM,109 nM,208 nM,181 nM,24.5 nM,95.4 nM,109 nM
